Test results taken from the DeepSol protein solubility set.

Assay: soluble on expression in E. coli; label from the status in PepcDB or PDB records

Sequence | soluble on expression in E. coli
MGRIYLKKAKSEEDLLKRGRPFTVEVDELKIPFCVSPVTNTFDNKKKVFLTFLGPVKQFHEAIHLCITSLYRPTPYNKYELTTNVDDLTCTPDIKNMKESYLATIKSESLNASTIDNFLSKKTSIEKLTLGMKVLDNFQEDSAIFRMKYFWFTYSLEHAPIVLSKFQGTHLWMTDANIKNEDIISFLNTWQNSECDRKIFEIKVSEGMNPLNPDIVYEDIDVSDWDPAERPKEFNFVSTFFPENFNKVYDCSTWMDIKRSGDGKIASICITSNAFKFLVWD | not soluble
MGRKIVFFDIDGTLLDEQKQLPLSTIEAVRRLKQSGVYVAIATGRAPFMFEHVRKQLGIDSFVSFNGQYVVFEGNVLYKQPLRREKVRALTEEAHKNGHPLVFMDAEKMRASIGDHPHIHVSMASLKFAHPPVDPLYYENKDIYQALLFCRAEEEEPYVRNYPEFRFVRWHDVSTDVLPAGGSKAEGIRMMIEKLGIDKKDVYAFGDGLNDIEMLSFVGTGVAMGNAHEEVKRVADFVTKPVDKEGIWYGLKQLQLIR | soluble
MGRLADTLDALSVRALSPDHRIQGQLHHRTKVDISFTSEDSYYEYKSEQAVAAQLSAVLNALIVGRNEGFCAAVREVTDLRLDDRPHWDARRRRFREERDGAPLEGQSAGGWLTVASVGLRDANATVKPGAFDELDASGFLIEVHSAIADLWKDQAMAMSYLRRTHFG | not soluble
MGRNRIKKVTERLPLPPNARRVEDPEMNMSREVVEDPGVPGTQDVTFAVAEVNGVETGRLPVANVVVTPAHEAVVRVGTKPGTEVPPVIDGSIWDAIAGCEAGGNWAINTGNGYYGGVQFDQGTWEANGGLRYAPRADLATREEQIAVAEVTRLRQGWGAWPVCAARAGAR | soluble
MGRRVLLSFLGLGDYEYCYYTYEGKTSTYTRFIQTAVYELFRNDEPMDVVVFATKEAQDRNGQDRKKGDKLLEGIGTAFSRIAPEANVKIVEIESGQDEQANWRLFDRIMDEIKEGDTIYFDITHSFRSIPFVALIVLNYARLVKKADIGAIIYGWFEVLGRPIDVEQMPEEQRVAPIVNLTSMAKLLDWTNGVDQFLRTGDASIIQALTAKENSEVFRNPSLSQAVKDEVKELRELTKRLDQTEKAIRTCRSLQIDEEVQKFHEQLGRVRSASAEAIKPLVPLLDVMEKKYAMFDDDPIMNSWKAVRWCLDHGLIQQALTMLEENAVTAVCRVLGLDLRNEKARGDVHSAIEILLRDIPKEEWRVRSVERVEQIIDFLSPYKGDLKRFSTLKERRNDINHAGARPQPLKAEKFWPDAEQSFRELGAFFERMSALAKSMQTVKGNG | not soluble
MGRVIFMGKTGCGKTTLCQALNNLEIKYKKTQAIELYDNAIDTPGEYMENRGYYTALIVTAADADIIALVYDCTSEENYIAPGFASMFCKEVIGIITKINLAKDKSEIEVAEERLNLAGVSKIFKVDTVDDVGIKELFNYLNKFLEHHHHHH | soluble
MGRYSVKRYKTKRRTRDLDLIYNDLSTKESVQKLLNQPLDETKPGLGQHYCIHCAKYMETAIALKTHLKGKVHKRRVKELRGVPYTQEVSDAAAGYNLNKFLNRVQEITQSVGPEKESNEALLKEHLDSTLANVKTTEPTLPWAAADAEANTAAVTEAESTASAST | soluble
MGSAVIRVLSYNIRSMRDDTAALARVISACEPDLVLVQEAPRFFRWRKKLAPLASACGQVVLSGGATAAGPALLCSLRATVERTEDVLLPLTPGLHRRGFATAVVRFGRARLGVLSCHLSLQKNERYEQGGMLLDHLARLGTPHAIAGGDLNERPDGRTFKRLASELRDCWATAPWGAEYTSTPADPHQRIDAILATPGIEVLACGVPLGHPGVTEADLRAATDHLPVLAALRVPASLEHHHHHH | not soluble
MGSDKIHHHHHHACILFVCFLYTNNEIGVTSSKLEADIRSSQKIKDDWTVDGSVSSTMAAYISYPQDLSDHSFSVYVNRPGLSFGYFFRGGGTLSGIQRGIVEFTVEGYNERAFISMNQQQVQQLEIDDGNTIQVVDIDRNKPFAIVLPINAGNITFYDVNRNTVEYWNNPL | not soluble
MGSDKIHHHHHHACSQKQPIQATVTPSDPVVGEEIFFSDSTSGARIWYWEFGNNETSTQRSGYHRFKQKGVYKIRLTVNGNLERYFDVRVKEKTNAEDLHLVHIIAPKEAIQGENIIFRGEGHDEQWRWEFGETGMIDSREKTALYAYTEPGEYEVLLNTENTRYPIRHRINILPYYSENDSTDVMVLIGLDIKEKLQNIADGKPFNVNYNYVVDKYFNNNPNTLVIVNNNKYNDFYSYCQGLHHIGRKETIIQNVIVETEDEESGYITQITVMQIEKKK | not soluble
MGSDKIHHHHHHACSSDDDNTVNDETTPPEEEAVVTAPDVVGTYWGNLDISMLPDGSDQEVVIADGLPKFITFSQVSDTEVKMELKEFELFINGNILKFGDIVIDKCAVKKETDASTFTGQQDLTFQGDAAALGTCATSIEGTVQSGNATMNIQVKVPALKQTVKVAFSGVKQVEESGKD | not soluble
MGSDKIHHHHHHAGELNLYSMNTGSYVYHMTGNHGQYNEHFNNNFFSVERKFSQDSKYSVLVGTMKNSFDDRCLTLGVRRDWLKNDTGWVLKGVYAYTGEFFFDAFSHCGDSGTYRTAKKITGIGFSPYLYHGLQYNFTDYFGVEGGIIVPAIFVMSVQWSFR | not soluble
MGSDKIHHHHHHAQRIEELPAVPLQIGYEKTLHLIFPTEVKYYSIGGDYVIGEKVGNCPEIIRLKAAEENFPGETTLSVVTADTKFYSYAISYNAHPVESYVRVDGQAPAPHTLPVGKDRQMFLIFPAGITYVDYGSTNVEVEKAEGVDNILAVKATGEFTEDTNISAVVEGGKFYTFNLHYAPFPERFSFVIDKEKTQRVAILDERERSSEQKERIRQAISKRIPLDLGLKDKNAGMEFEVGNIFIDGDILLLRMTLTNRTQIGYTTDFMRFYIQDAKIHKKTAVQQIEQNILFAFDYPEEIPAHESRTFTVAMNKFTIPDKKRLIIEIQERNGGRHFLYKLKNKSLLGAEEVFRSLQEQKTEDEADRILRRISR | not soluble
MGSDKIHHHHHHAQVNDTIQRTTGNDLYQGITRKLPYWQMVTPHGVQVTFAKTVHIIFPSAVRYVDLGSNWIIAGKADGAENVIRVKAATEGFPGETNFSVICEDGSFYSFNARYAHEPEMLNIEMKDFLENGDTTDFSHTRMNIHFRELAGESPLLVKLIMQSIYKEDRREIRHLGCKRFGVQFLLKSVHSHNGLFYFHTETRNRSNVAFRTDFIRFKIVDKKVPKRTAIQERVIDPVRSYNEVLVTEGKSDVRTVYAVPQFTIPDDKLLVIELFEKDGGRHQTIRVENADLVAARQINELKIK | not soluble
MGSDKIHHHHHHASCSGGDKSKAPVVSTADIENAAEVIKYYNTSLGVLKDMVKEKDVNAVLDYMEQKGKTPALSAIVPPAVVSKDSAIVLNPGNCFNEETRRNLKQNYTGLFQARTEFYANFDTYLSYLKKKDVTNAKKLLDVNYQLSTQMSEYKQNIFDILSPFTEQAELVLLVDNPLKAQIMSVRKMSSTMQSILNLYARKHRMDGPRIDLKVAELTKQLDAAKKLPVVNGHEGEMKSYQAFLSQVETFIKQVKKVREKGEYSDADYDMLTSAFETSII | not soluble
MGSDKIHHHHHHATEADVEAAFNPYKNGFPSFPGLAAGTVVNKGNVEQFKDALDPGLYQIVKNGWDEIKVGPTTQFAMDKFYVEATKKNLNTAKLGAQNGEITGFVAGRPFPEEPKADDPRAGEKLAWNFKYGLNWGDNAAIYPFYWKYRNMTSGQVERTLKFNFHFLNFKHRVQHAPVPEVTPNPSELFRGIYVKVLEPQDLKNTQLLIQRYEDDLKFDDAYLYLGFQRRVRRLATGQTTDAFLGADLMIEDFEGYNGRISDMKWTFKGTKNILMPYYNHNELQLTDEFKDPSGYKFVDFGGQGGCFPKITWQLRKVYVLEAAPVLASHPVSKRVFHVDAQVFNINRTLIYDRKGELWKTFTIGKSHPDHHLPVNKGTGIAIDDSFSMIDVQAKHCTTGQFKGQVDPKLNPPSLFQVQNMRGGD | not soluble
MGSDKIHHHHHHAYFFNVAFVPGQKSVLNKYSSKKKKDPFAQNKKWYADAKKEQWYIKSASSNYCLDANYIPKKNSHKTAVLLHGFMNNKDTMAPYAAMFHQLGYNVLIPDARAHGKSQGKYIGYGWPEKYDVQKWVKKDIAEKGKKQKIVIFGVSMGGATTMMTSGLKMPKQVKAYIEDCGYTDVKSEFLYEAKDIYKMPKLVASSAVAILSGVSKANLGFYLGDASAVNQLKKNKLPMMFIHGSKDNFVPTKMVYQNYKATNGPKELWIAEKAAHARSFETYPREYKARVSKFLNKYV | not soluble
